# Measured values as given in the nanobody polyreactivity screen of Harvey et al. (2022).
# Assay: yeast display, Sf9 membrane polyspecificity reagent, FACS + sequencing; frameworks hold sequencing errors
# In short: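 A nanobody's polyreactivity label depends on the gate it was sorted from. Yeast display cells were stained with 10% biotinylated, detergent-solubilized Sf9 membrane reagent for 1 hour at 4 °C, enriched on streptavidin microbeads and sorted by FACS. The low and high (top ~1%) gates were set on anti-HA fluorescence for expression and streptavidin fluorescence for reagent binding.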
row,Sequence,polyreactivity (PSR sort gate)
1,QVQLVESGGGLVQAGGSLRLSCAASGRTFSAYAMGWYRQAPGKERELVADIRRGGGTNYADSVKGRFTISRDNAKNTVYLQMNSLKPEDTAVYYCAAGYLRTYTRRYYWGQGTQVTVSS,high polyreactivity
2,QVQLVESGGGLVQAGGSLRLSCAASGRTFSAYTMGWYRQAPGKERELVAAITSGTSTYYADSVKGRFTISRDNAKNTVYLQMNSLKPEDTAVYYCNARDSGRWWHIGQSGEDYWGQGTQVTVSS,low polyreactivity
3,QVQLVESGGGLVQAGGSLRLSCAASGRTFSDYAMGWYRQAPGKERELVAAISNGGNTYADSVKGRFTISRDNAKNTVYLQMNSLKPEDTAVYYCNKESGDTARQSIMPSGRGDYWGQGTQVTVSS,low polyreactivity
4,QVQLVESGGGLVQAGGSLRLSCAASGRTFSGNAMGWYRQAPGKEREFVAVISSNGGSTYYADSVKGRFTISRDNAKNTVYLQMNSLKPEDTAVYYCNARYWRGWGGRVSKYGYWGQGTQVTVSS,high polyreactivity
5,QVQLVESGGGLVQAGGSLRLSCAASGRTFSGNAMGWYRQAPGKERELVAAITGRGGTTYYADSVKGRFTISRDNAKNTVYLQMNSLKPEDTAVYYCAADTKLSYQWFDYWGQGTQVTVSS,high polyreactivity
6,QVQLVESGGGLVQAGGSLRLSCAASGRTFSGNTMGWYRQAPGKERELVAAITGRGGSTYYADSVKGRFTISRDNAKNTVYLQMNSLKPEDTAVYYCAALRYTFAGRFDYWGQGTQVTVSS,high polyreactivity
7,QVQLVESGGGLVQAGGSLRLSCAASGRTFSGYAMGWYRQAPGKERELVAAIDRGDGTNYADSVKGRYTISRDNAKNTVYLQMNSQIPEDTAVYYCAGDYSDGSTSLTYTGFVYWGQGTQVTVSS,low polyreactivity
8,QVQLVESGGGLVQAGGSLRLSCAASGRTFSGYAMGWYRQAPGKERELVAAISWRGGRTYYADSVKGRFTISRDNAKNTVYLQMNSLKPEDTAVYYCATTVGDAGRRYYYWGQGTQVTVSS,high polyreactivity
9,QVQLVESGGGLVQAGGSLRLSCAASGRTFSIYAMGWYRQAPGKERELVAAISRGVTTYADSVKGRFTISRDNAKNTVYLQMNSLKPEDTAVYYCNARTVVYVRGGYWGQGTQVTVSS,low polyreactivity
10,QVQLVESGGGLVQAGGSLRLSCAASGRTFSKYAMGWYRQAPGKERELVAAIRWSGGSTYYADSVKGRFTISRDNAKNTVYLQMNSLKPEDTAVYYCAKRSRGLKFDYWGQGTQVTVSS,high polyreactivity
11,QVQLVESGGGLVQAGGSLRLSCAASGRTFSKYTMGWYRQEPGKESELVAVISRSGTRTYYADSVKGRFTISRDNANNTVYLQMNSMKPEDTAVYYCAAKDERRSFGMGYWGQGTQVTVTS,high polyreactivity
12,QVQLVESGGGLVQAGGSLRLSCAASGRTFSLNAMGWYRQAPGKERELVAAINRGGTTYYADSVKGRFTISRDNAKNTVYVQMNSLKPEDTAVYYCAARYISSYDWGQGTQVTVSS,high polyreactivity
13,QVQLVESGGGLVQAGGSLRLSCAASGRTFSLYTMGWYRQAPWKERELVASITSSGSTSYADSVKGRFTISRDNAKNTVYLQMNSLKPEDTAVYYCNAAVSYPKYPYVSPGVPSYDYWGQGTQVTVSS,low polyreactivity
14,QVQLVESGGGLVQAGGSLRLSCAASGRTFSNNAMGWYRQAPGKERELVADITYSSDSTYYADSVKGRFTISRDNAKNTVYLQMNCLKPEDTAVYYCAADVVVGGSGSEYYYWGQGTQVTVSS,low polyreactivity
15,QVQLVESGGGLVQAGGSLRLSCAASGRTFSQNAMGWYRQAPGKERELVAAIRRGGSTNYADSVKGRFTISRDNEKNTVYLQMHSLKPEDTAVYYCAADLRRNGWGFDYWGQGTQVTVSS,high polyreactivity
16,QVQLVESGGGLVQAGGSLRLSCAASGRTFSRNAMGWYRPAPGKERQLVAAIRGSGTGTYYADSVKGRFTISRDNAKNTVYLQMNSLKPEDTPVYYSNADFISTRPPKATDEDYWGQGTQVTVSS,high polyreactivity
17,QVQLVESGGGLVQAGGSLRLSCAASGRTFSRNAMGWYRQAPGKERELVATITSDGSTNYADSVKGRFTISRDNAKITVYLQMNSLKPEDTAVYYCAAGEQSSIIGAHDYWGQGTQVTVSS,low polyreactivity
18,QVQLVESGGGLVQAGGSLRLSCAASGRTFSRYAMGWYRQAPGKERELVASITSRGGSTYYADSVKGRFTISRDNAKNTVYLQMNSLKPEDTAVYYCNVKPTYSTRYWEDYWGQGTQVTVSS,high polyreactivity
19,QVQLVESGGGLVQAGGSLRLSCAASGRTFSRYAMGWYRQAPGKERELVATINTRAGITNYPDSVKGRFTISRDNAKNTVYLQMNSLKPEDTAVYYCNRGRPGGPSWYHYVYWGQGTQVTVSS,high polyreactivity
20,QVQLVESGGGLVQAGGSLRLSCAASGRTFSRYTMGWYRQAPGKEREFVAAIDRGGGTTYYADSVKGRFTISRDNAKNTVYLQMNSLKPEDTAVYYCAAERNYWSTQYYYWGQGTQVTVSS,high polyreactivity
21,QVQLVESGGGLVQAGGSLRLSCAASGRTFSRYVMGWYRQAPGKERELVATISDVGNTYYADSVKGRFTISRDNAKNTVYLQMNSLKPEDTAVYYCNRVYFTSRQGQMYYWGQGTQVTVSS,high polyreactivity

row,Sequence,polyreactivity (PSR sort gate)
1,QVQLVESGGGLVQAGGSLRLSCAASGRTFSSNAMGWYRHAPGKERELVAAISFRGGRTFYADSVKGRFTISRDNAKNTGFLQMNSLKPEDSAVYYCNAVPETRSYDYWGQGTQVTVSS,high polyreactivity
2,QVQLVESGGGLVQAGGSLRLSCAASGRTFSSNAMGWYRQAPGKEREFVAVISSGGSTYYADSVKGRFTISRDNAKNTVYLQMNSLKPEDTAVYYCAAAVGPSGYYYESDYWGQGTQVTVSS,high polyreactivity
3,QVQLVESGGGLVQAGGSLRLSCAASGRTFSSNAMGWYRQAPGKERELVAAITYTGTSTYYADSVKGRFTISRDYAKNTVYLQMNSLKPEDTAVYYCAALYVQGTHTYGYWGQGTQVTVSS,high polyreactivity
4,QVQLVESGGGLVQAGGSLRLSCAASGRTFSSNTMGWYRQAPGKERELVAAIDWSGGRTYYADSVKGRFTISRDNAKNTVYLQLNSLKPEDTEVYYCARSRSYWGIVYGRYDYWGQGTQVTVSS,high polyreactivity
5,QVQLVESGGGLVQAGGSLRLSCAASGRTFSTYAMGWYRQAPGKERELVAGISRGGGSTYYADSVKGRFTISRDNAKNTVYLQMNSLKPEDTAVYYCAAKRPQYYVQYGYWGQGTQVTVSS,high polyreactivity
6,QVQLVESGGGLVQAGGSLRLSCAASGRTFSVNAMGWSRQAPGKERELVAAITYSGGGTYYADSVKGRFTISRDNAKNPVYLQMNSLKPEDTAVYYCAAPVYTWYHRYDYWGQGTQVTVSS,high polyreactivity
7,QVQLVESGGGLVQAGGSLRLSCAASGRTFSVYAMGWYRQAPGKERELVAAINRGGSTNYADSVKGRFTISRDNAKNTVYLQMNSLKPEDTAVYYCAATYYWGRKAGFDYWGQGTQVTVSS,low polyreactivity
8,QVQLVESGGGLVQAGGSLRLSCAASGRTFSVYAMGWYRQAPGKERELVATISWGGGITYYADSVKGRFTISRDNAKNTVYLQMNSLKPEDTAVYYCAAKRSLYPYYYWGQGTQVTVSS,high polyreactivity
9,QVQLVESGGGLVQAGGSLRLSCAASGRTFSVYTMGWYRQAPGKERELVASINWSGGRTYYADSVKGRFTISRDNAKYSVYFQMISLKPEDTAVYYCAATGWRTLFDYWGQGTQVTVSS,high polyreactivity
10,QVQLVESGGGLVQAGGSLRLSCAASGRTFSVYTMGWYRQAPGKERELVASISRSGGRTYYADSVKGRFTISRDNAKNTVYLQMNSLKPADTAVYYCAARWYSASALKYYYWGQGTQVTVSS,high polyreactivity
11,QVQLVESGGGLVQAGGSLRLSCAASGRTFSWNTMGWYRQAPGKERELVAAITRVGTTYYADSVKGRFTISRDNAKNTVYLQMNSLKPEDTGVYYCNARKVRYPYRWYDYWGQGTQVTVSS,high polyreactivity
12,QVQLVESGGGLVQAGGSLRLSCAASGRTFSWYAMGWYRQAPGKEREFVATISASGGSTYYADSVKGRFTISRDNAKNTVYLQMNSLKPEDTAVYYCAADRSIRFFSPANYDYWGQGTQVTVSS,high polyreactivity
13,QVQLVESGGGLVQAGGSLRLSCAASGRTFSWYAMGWYRQAPGKERELVAAITWSGGSTYYADSVKGRFTISRDNAKNTVYLQMNSLKPEDTAVYYCNALRYSNRRYYSTGPHDYWGQGTQVTVSS,high polyreactivity
14,QVQLVESGGGLVQAGGSLRLSCAASGRTFSWYTMGWYRQAPGNERELVAVINYSGGSTYYADSVKGRFTISRDNAKNTVYLQMTSLKPEDTAVYYCAARNVVTGYRYDYWGQGTQVTVSS,high polyreactivity
15,QVQLVESGGGLVQAGGSLRLSCAASGRTFSYNAMGWYRQAPGKERELVAAISSGGSTYYADSVKGRFTISRDNAKNTVYLQMNSLKPEDTAVYYCAADSPSVWGYRYDYDYWGQGTQVTVSS,low polyreactivity
16,QVQLVESGGGLVQAGGSLRLSCAASGRTFSYNAMGWYRQAPGKERELVATISWGGGSTYYADSVKGRFTISRDNAKNTVYLQMNSQKPEDTAVFYCARVGWYAYLIDRDYWGQGSQVTVSS,high polyreactivity
17,QVQLVESGGGLVQAGGSLRLSCAASGRTFSYNAMGWYRQAPGKERELVAVISASGGSTYYADSVKGRFTISRDNAKNTVYLQMNSLKPEDTAVYYCAKRRSPVERYDYWGQGTQVTVSS,low polyreactivity
18,QVQLVESGGGLVQAGGSLRLSCAASGRTFSYYAMGWYRQAPGKERELVAAISWSGGSTYYADSVKGRFTISRDNAKNTVYLQMNSLKPEDTAVYYCNAPGYVWKGYDYWGQGTQVTVSS,high polyreactivity
19,QVQLVESGGGLVQAGGSLRLSCAASGRTFSYYAMGWYRQAPGKERELVAAITDSGDSTYYADSVKGRFTISRDNAKNTVYLQMNSLKPEDTAVYYCAAEIYSYYRFYWYDYWGQGTQVTVSS,high polyreactivity
20,QVQLVESGGGLVQAGGSLRLSCAASGRTFSYYAMGWYRQAPGKERELVAAITSSGGRTYYADSVKGRFTISRDTAKKSFYFQMYSLKPEDSAVYFFNTYTGQRDFSPFDSWGQGTQVTVTS,high polyreactivity
